Patent publication US10562947B2, “Compositions and methods for preventing or treating diseases, conditions or processes characterized by aberrant fibroblast proliferation and extracellular matrix deposition” (MOERAE MATRIX, INC., priority 2011, dated 2020)

Legend:
Experiment in all cases: Kinase Profiling Assay
Assay type in all cases: biochemical
Conditions in all cases: 100 μM peptide
[1] = biological target: Met(Y1248C)(h) (Homo sapiens, UniProt P08581, Y1230C)
Procedure, shortened: (§1)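 Duplicate activity readings per kinase; peptide inhibitors of MK2 profiled against 266 human kinases for selectivity.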

[2] = biological target: T1, PKCθ(h) (Homo sapiens, UniProt Q04759)
T1 construct: purchased Millipore (IC50 Profiler Express service)
Procedure, shortened: as §1

[3] = biological target: T2, NEK2(h) (Homo sapiens, UniProt P51955)
T2 sequence (P51955 1-445): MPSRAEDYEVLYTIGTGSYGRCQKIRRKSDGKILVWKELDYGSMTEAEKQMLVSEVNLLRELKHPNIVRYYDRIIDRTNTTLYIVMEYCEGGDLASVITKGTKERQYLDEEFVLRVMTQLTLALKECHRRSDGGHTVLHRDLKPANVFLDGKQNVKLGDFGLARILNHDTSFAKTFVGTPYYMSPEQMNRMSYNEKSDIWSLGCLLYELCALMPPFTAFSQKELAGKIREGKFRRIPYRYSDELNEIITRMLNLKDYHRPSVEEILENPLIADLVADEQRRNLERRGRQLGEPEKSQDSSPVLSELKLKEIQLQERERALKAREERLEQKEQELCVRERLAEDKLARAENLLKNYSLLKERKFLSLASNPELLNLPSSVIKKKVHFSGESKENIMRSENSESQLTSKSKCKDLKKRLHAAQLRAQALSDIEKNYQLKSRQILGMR
Procedure, shortened: as §1

[4] = biological target: Abl(Q252H)(h) (Homo sapiens, UniProt P00519, Q252H)
Procedure, shortened: as §1

[5] = biological target: PAK4(h) (Homo sapiens, UniProt O96013)
Procedure, shortened: as §1

[6] = biological target: MSSK1(h) (Homo sapiens, UniProt Q9UPE1)
Procedure, shortened: as §1

[7] = biological target: MLK1(h) (Homo sapiens, UniProt P80192)
Procedure, shortened: as §1

[8] = biological target: CHK2(R145W)(h) (Homo sapiens, UniProt O96017, R145W)
Procedure, shortened: as §1

[9] = biological target: T3, Mer(h) (Homo sapiens, UniProt Q12866)
T3 sequence (Q12866 21-999): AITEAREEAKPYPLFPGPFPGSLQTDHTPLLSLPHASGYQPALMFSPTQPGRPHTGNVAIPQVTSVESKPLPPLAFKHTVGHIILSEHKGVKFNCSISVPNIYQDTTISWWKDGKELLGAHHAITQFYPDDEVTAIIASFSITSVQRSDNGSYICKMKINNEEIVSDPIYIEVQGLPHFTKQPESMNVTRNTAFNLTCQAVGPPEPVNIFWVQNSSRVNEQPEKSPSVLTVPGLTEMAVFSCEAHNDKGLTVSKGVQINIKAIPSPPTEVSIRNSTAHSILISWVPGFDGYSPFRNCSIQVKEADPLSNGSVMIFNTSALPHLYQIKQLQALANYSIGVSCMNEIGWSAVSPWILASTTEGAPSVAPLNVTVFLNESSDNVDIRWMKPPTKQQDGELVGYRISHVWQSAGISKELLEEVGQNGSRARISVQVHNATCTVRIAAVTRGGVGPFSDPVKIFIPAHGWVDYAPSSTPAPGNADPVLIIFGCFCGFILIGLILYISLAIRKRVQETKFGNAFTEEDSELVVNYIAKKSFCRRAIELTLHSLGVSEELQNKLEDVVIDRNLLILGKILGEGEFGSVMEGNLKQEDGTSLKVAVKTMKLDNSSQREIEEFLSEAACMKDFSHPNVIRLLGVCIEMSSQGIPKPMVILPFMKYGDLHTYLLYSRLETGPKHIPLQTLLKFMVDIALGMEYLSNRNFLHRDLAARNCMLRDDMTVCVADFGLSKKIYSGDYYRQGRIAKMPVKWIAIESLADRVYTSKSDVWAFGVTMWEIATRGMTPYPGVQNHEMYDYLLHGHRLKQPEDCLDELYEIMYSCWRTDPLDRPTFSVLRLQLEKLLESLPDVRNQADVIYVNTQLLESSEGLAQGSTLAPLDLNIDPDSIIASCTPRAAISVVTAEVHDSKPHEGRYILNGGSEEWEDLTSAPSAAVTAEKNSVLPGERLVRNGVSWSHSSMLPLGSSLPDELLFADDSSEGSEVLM
Procedure, shortened: as §1

[10] = biological target: TLK2(h) (Homo sapiens, UniProt Q86UE8)
Procedure, shortened: as §1

[11] = biological target: DAPK1(h) (Homo sapiens, UniProt P53355)
Procedure, shortened: as §1

[12] = biological target: T4, IRAK4(h) (Homo sapiens, UniProt Q9NWZ3)
T4 construct: purchased Millipore
T4 sequence (Q9NWZ3 1-460): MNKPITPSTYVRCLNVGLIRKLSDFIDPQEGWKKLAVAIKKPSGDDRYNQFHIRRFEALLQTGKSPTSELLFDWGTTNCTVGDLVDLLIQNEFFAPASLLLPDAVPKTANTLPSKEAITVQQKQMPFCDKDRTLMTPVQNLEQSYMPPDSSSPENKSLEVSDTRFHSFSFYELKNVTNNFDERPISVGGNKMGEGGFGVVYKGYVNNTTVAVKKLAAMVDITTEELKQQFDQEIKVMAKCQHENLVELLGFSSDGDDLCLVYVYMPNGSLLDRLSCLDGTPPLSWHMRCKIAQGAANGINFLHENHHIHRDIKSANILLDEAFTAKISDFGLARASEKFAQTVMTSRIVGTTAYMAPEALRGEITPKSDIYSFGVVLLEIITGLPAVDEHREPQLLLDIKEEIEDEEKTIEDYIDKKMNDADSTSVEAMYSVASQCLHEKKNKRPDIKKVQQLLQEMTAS
Procedure, shortened: as §1

MSSK1(h), sequence (Q9UPE1 whole entry): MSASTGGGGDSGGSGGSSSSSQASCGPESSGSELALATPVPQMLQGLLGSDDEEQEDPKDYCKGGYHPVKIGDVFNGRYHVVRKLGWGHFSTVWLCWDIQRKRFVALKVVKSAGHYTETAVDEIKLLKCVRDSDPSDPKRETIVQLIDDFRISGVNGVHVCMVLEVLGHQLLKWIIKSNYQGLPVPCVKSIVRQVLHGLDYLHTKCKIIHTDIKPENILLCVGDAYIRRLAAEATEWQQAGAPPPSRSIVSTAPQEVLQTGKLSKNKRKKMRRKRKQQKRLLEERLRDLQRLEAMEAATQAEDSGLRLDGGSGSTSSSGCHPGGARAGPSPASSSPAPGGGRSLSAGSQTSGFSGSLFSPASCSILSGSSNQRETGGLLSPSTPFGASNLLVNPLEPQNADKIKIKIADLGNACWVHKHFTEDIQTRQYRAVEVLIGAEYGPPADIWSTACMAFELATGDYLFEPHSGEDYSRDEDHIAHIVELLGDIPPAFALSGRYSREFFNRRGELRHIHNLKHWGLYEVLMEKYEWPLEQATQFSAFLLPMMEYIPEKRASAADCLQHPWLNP
T1 sequence (Q04759 whole entry): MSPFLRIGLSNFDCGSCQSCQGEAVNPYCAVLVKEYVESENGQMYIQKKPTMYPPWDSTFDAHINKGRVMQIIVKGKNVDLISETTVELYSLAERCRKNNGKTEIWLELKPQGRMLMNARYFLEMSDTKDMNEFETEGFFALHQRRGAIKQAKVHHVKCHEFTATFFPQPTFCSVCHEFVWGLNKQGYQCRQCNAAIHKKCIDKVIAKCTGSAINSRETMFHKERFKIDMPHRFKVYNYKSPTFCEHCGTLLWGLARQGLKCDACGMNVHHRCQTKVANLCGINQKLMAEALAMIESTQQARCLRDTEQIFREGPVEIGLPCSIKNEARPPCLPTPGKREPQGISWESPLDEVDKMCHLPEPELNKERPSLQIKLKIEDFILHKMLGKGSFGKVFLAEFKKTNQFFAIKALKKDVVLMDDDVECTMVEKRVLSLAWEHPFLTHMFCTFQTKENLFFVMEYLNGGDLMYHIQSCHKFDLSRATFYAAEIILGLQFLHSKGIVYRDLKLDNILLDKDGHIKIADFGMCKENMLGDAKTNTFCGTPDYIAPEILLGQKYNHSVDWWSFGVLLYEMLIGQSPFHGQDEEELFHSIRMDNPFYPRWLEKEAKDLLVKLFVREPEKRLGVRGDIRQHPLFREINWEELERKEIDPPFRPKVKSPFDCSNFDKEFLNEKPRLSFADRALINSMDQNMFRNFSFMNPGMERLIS
CHK2(R145W)(h), sequence (O96017 whole entry R145W): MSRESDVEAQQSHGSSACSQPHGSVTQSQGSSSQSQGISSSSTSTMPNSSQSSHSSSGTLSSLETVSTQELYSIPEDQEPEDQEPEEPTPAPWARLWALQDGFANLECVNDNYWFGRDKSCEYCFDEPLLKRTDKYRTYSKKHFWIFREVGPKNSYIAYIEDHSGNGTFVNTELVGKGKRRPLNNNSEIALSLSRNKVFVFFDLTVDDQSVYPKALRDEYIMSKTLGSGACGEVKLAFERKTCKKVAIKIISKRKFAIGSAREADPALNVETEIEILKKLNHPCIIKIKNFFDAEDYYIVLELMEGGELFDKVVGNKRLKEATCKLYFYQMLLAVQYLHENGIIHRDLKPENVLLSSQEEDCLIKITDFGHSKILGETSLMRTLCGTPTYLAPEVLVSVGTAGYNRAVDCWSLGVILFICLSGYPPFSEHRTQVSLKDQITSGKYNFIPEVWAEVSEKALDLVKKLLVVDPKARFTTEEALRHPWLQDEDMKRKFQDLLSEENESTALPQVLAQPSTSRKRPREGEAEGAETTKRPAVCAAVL
PAK4(h), sequence (O96013 whole entry): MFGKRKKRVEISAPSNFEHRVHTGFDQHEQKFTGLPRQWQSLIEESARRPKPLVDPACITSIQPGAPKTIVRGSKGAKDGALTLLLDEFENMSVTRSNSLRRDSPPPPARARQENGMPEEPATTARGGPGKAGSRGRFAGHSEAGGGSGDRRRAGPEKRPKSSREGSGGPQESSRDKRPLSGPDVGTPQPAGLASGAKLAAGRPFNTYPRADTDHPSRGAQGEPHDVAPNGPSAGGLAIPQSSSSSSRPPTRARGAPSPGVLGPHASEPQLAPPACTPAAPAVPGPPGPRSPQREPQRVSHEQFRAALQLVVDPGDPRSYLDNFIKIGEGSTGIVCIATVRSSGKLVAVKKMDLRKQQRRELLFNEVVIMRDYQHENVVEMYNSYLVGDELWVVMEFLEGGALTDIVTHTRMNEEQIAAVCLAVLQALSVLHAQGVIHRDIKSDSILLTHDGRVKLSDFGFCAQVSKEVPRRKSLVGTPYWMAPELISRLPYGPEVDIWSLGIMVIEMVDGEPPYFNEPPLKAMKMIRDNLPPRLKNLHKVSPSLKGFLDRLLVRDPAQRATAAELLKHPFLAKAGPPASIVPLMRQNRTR
DAPK1(h), sequence (P53355 whole entry): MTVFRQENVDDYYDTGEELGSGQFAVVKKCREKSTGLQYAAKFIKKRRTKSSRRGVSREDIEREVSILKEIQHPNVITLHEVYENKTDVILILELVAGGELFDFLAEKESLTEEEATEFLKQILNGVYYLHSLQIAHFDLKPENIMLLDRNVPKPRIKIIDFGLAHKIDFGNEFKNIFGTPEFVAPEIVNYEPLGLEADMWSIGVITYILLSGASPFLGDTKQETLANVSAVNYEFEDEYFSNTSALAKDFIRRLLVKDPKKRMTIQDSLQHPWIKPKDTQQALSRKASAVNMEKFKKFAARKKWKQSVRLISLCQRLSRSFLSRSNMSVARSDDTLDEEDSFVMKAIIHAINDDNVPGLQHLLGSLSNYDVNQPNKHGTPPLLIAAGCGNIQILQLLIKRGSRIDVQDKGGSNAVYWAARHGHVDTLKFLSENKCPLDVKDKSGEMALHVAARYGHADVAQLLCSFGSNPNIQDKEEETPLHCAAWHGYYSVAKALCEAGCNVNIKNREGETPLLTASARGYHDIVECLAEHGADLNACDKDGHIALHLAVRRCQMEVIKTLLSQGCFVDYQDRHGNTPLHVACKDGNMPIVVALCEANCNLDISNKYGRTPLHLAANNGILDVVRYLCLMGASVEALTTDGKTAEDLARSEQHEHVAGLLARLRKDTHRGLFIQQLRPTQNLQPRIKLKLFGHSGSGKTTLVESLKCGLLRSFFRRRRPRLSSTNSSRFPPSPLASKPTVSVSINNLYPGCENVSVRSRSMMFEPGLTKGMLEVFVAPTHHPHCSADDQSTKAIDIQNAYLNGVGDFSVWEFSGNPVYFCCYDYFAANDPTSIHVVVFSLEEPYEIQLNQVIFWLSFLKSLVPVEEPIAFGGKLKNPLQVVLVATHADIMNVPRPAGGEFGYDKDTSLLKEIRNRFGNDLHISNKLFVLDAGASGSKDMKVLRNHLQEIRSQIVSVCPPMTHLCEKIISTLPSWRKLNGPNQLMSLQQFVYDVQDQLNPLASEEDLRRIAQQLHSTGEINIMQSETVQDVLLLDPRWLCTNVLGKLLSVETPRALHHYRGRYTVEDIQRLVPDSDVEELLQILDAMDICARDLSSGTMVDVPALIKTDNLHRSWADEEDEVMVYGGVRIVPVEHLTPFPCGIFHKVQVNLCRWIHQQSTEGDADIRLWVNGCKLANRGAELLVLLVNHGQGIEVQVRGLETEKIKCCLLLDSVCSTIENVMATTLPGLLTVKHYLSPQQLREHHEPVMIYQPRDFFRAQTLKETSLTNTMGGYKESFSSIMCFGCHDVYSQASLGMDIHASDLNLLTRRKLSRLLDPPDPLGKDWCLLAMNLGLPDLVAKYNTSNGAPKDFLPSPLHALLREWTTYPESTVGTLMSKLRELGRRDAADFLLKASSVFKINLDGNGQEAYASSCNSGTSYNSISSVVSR
TLK2(h), sequence (Q86UE8 whole entry): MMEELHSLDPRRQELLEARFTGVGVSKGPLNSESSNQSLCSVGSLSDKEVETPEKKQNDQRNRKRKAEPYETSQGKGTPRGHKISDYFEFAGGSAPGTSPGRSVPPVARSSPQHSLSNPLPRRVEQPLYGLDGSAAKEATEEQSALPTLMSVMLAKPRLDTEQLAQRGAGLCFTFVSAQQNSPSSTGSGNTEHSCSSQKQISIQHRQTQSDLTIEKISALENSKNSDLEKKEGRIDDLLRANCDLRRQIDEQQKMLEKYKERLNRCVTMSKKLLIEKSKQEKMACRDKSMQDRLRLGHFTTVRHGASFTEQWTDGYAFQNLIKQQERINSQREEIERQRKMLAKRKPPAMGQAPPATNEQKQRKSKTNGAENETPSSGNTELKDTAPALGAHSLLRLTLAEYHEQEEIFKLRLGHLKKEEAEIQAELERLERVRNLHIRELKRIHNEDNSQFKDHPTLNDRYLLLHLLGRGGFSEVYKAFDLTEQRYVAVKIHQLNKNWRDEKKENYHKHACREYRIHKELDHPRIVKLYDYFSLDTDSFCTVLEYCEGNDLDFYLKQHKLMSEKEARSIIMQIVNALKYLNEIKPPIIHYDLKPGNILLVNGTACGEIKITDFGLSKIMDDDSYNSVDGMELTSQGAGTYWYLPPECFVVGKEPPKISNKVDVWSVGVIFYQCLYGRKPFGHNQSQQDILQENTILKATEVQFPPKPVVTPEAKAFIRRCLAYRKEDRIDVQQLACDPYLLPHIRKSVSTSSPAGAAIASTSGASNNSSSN

Sequence | Met(Y1248C)(h) % activity [1] [%] | PKCθ(h) % activity [2] [%] | NEK2(h) % activity [3] [%] | Abl(Q252H)(h) % activity [4] [%] | PAK4(h) % activity [5] [%] | MSSK1(h) % activity [6] [%] | MLK1(h) % activity [7] [%] | CHK2(R145W)(h) % activity [8] [%] | Mer(h) % activity [9] [%] | TLK2(h) % activity [10] [%] | DAPK1(h) % activity [11] [%] | IRAK4(h) % activity [12] [%]
KAFAKLAARLYRKALARQLGVAA [MMI-0400] | 36 | 76 | 61 | 98 | 89 | 75 | 33 | 31 | 50 | 151 | 36 | 59
YARAAARQARAKALNRQLGVA (Mammalian) [MMI-0200] | 141 | 101 | 97 | – | 98 | 100 | 84 | 81 | 90 | 129 | – | 110
FAKLAARLYRKALARQLGVAA [MMI-0300] | 84 | 88 | 78 | 82 | 94 | 77 | 40 | 33 | 52 | – | 46 | 59
HRRIKAWLKKIKALARQLGVAA (Mammalian) [MMI-0500] | 73 | 62 | 0 | 40 | 86 | 22 | 43 | 3 | 17 | 133 | 0 | 3
